Results on six variants are retold here after IntAct's records for PubMed 22609948.

First the molecules themselves.
B1: Segment polarity protein dishevelled homolog DVL-2 (Mus musculus), Q60838 (parent)
chain: MAGSSAGGGGVGETKVIYHLDEEETPYLVKIPVPAERITLGDFKSVLQRPAGAKYFFKSMDQDFGVVKEEISDDNARLPCFNGRVVSWLVSSDTPQPEVAPPAHESRTELVPPPPPLPPLPPERTSGIGDSRPPSFHPNVSSSHENLEPETETESVVSLRRDRPRRRDSSEHGAGGHRPGGPSRLERHLAGYESSSTLMTSELESTSLGDSDEDDTMSRFSSSTEQSSASRLLKRHRRRRKQRPPRMERTSSFSSVTDSTMSLNIITVTLNMEKYNFLGISIVGQSNERGDGGIYIGSIMKGGAVAADGRIEPGDMLLQVNDMNFENMSNDDAVRVLRDIVHKPGPIVLTVAKCWDPSPQAYFTLPRNEPIQPIDPAAWVSHSAALTGAFPAYPGSSSMSTITSGSSLPDGCEGRGLSVHMDMASVTKAMAAPESGLEVRDRMWLKITIPNAFLGSDVVDWLYHHVEGFPERREARKYASGLLKAGLIRHTVNKITFSEQCYYVFGDLSGGCESYLVNLSLNDNDGSSGASDQDTLAPLPGATPWPLLPTFSYQYPAPHPYSPQPPPYHELSSYTYGGGSASSQHSEGSRSSGSTRSDGGAGRTGRPEERAPESKSGSGSESELSSRGGSLRRGGEPGGTGDGGPPPSRGSTGAPPNLRALPGLHPYGAPSGMALPYNPMMVVMMPPPPPPVSTAVQPPGAPPVRDLGSVPPELTASRQSFHMAMGNPSEFFVDVM

In the first test the parent is B1. The following applies: with plk1_human PLK1, P53350.
Sequence of plk1_human PLK1, P53350 (P53350 whole entry): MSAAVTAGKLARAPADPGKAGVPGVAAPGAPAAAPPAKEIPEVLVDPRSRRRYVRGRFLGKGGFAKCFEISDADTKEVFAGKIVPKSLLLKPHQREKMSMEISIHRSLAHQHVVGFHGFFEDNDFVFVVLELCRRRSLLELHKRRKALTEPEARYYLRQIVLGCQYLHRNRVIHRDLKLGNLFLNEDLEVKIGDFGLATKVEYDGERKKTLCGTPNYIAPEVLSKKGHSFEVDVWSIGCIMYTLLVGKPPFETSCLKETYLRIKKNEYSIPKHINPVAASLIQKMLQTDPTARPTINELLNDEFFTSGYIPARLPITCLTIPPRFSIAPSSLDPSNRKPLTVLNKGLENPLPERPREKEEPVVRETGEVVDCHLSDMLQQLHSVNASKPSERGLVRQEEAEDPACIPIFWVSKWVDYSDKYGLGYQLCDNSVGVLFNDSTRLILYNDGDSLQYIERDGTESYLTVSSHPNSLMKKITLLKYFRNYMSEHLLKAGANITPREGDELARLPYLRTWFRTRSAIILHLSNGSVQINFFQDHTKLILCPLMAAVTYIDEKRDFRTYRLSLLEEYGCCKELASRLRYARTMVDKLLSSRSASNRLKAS
With T224A, the “effect of a mutation on the interaction” value was “decreasing interaction”.

Variants of B1 are the subject of the next test. The following applies: with plk1_human PLK1, P53350. This is another data set of the same source.
For T224D, the “effect of a mutation on the interaction” value is “disrupting interaction”.

Variants of B1 are the subject of a further test. The following applies: with plk1_human PLK1, P53350. The source holds these as a separate data set.
With T224E, the “effect of a mutation on the interaction” value is “decreasing interaction”.

Variants of B1 are the subject of a further test. The following applies: with plk1_human PLK1, P53350. The source holds these as a separate data set.
Consider S398A, for which the “effect of a mutation on the interaction” value is “decreasing interaction”.

The variants in the next test derive from B1. The following applies: with plk1_human PLK1, P53350. This is another data set of the same source.
With S143D, the “effect of a mutation on the interaction” value is listed as “disrupting interaction”.

Another test covers variants of B1. The note with it: with plk1_human PLK1, P53350. This is another data set of the same source.
For S143A, the “effect of a mutation on the interaction” value was “disrupting interaction”.
